Experimental data: PMC5150656
pKd: −log10 of the molar value.

Columns and labels:
[1] = biological target: YFP-fused myosin Va peptide containing five tandem IQ motifs (IQ2-6) (mouse) (UniProt Q99104); assay: FRET or BRET; FRET 2-hybrid in live HEK293 cells co-expressing a CFP-tagged and a YFP-tagged partner; 3^3-FRET (EA) and E-FRET (ED) efficiencies from single cells, room temperature; stoichiometry from the ratio EA,max/ED,max
[2] = biological target: EYFP-fused myosin Va peptide containing four tandem IQ domains (IQ3-6) (mouse) (UniProt Q99104); assay: as above
Chain of EYFP-fused myosin Va peptide containing four tandem IQ domains (IQ3-6) (mouse) (Q99104 814-920): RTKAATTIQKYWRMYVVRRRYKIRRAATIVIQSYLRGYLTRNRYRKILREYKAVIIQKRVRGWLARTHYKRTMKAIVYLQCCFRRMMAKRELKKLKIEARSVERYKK

[3] = biological target: EYFP-tagged myosin Va peptide containing three tandem IQ domains (IQ4-6) (mouse) (UniProt Q99104); assay: as above
Chain of EYFP-tagged myosin Va peptide containing three tandem IQ domains (IQ4-6) (mouse) (Q99104 837-920): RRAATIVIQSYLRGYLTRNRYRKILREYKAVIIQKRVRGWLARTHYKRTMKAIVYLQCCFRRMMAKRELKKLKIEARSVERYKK

[4] = biological target: EYFP-tagged myosin Va peptide containing two IQ domains (IQ5-6) (mouse) (UniProt Q99104); assay: as above
Chain of EYFP-tagged myosin Va peptide containing two IQ domains (IQ5-6) (mouse) (Q99104 862-920): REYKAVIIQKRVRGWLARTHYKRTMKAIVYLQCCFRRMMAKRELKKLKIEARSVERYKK

[5] = biological target: ECFP tagged myosin Va peptide containing a single IQ domain (IQ6) (mouse) (UniProt Q99104); assay: as above
Chain of ECFP tagged myosin Va peptide containing a single IQ domain (IQ6) (mouse) (Q99104 885-920): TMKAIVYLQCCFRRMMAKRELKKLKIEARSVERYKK

[6] = biological target: ECFP fused myosin Va peptide containing five tandem IQ domains (IQ2-6) (mouse) (UniProt Q99104); assay: as above
Chain of ECFP fused myosin Va peptide containing five tandem IQ domains (IQ2-6) (mouse) (Q99104 789-920): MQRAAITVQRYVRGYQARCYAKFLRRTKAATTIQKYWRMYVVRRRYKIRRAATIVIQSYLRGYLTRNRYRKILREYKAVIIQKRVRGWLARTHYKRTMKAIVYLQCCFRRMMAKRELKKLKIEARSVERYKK

[7] = biological target: ECFP fused myosin Va peptide containing three tandem IQ domains (IQ4-6) (mouse) (UniProt Q99104); assay: as above
Chain of ECFP fused myosin Va peptide containing three tandem IQ domains (IQ4-6) (mouse) (Q99104 837-920): as the sequence (Q99104 837-920) above

[8] = biological target: EYFP tagged myosin Va four tandem IQ domain peptide (IQ3-6) (mouse) (UniProt Q99104); assay: FRET or BRET; FRET 2-hybrid (3^3-FRET and E-FRET) in single live HEK293 cells, room temperature, basal (resting) Ca2+: Tyrode's bath with 2 mM Ca2+; relative (effective) dissociation constants Kd,EFF; stoichiometry ratio ν = EA,max/ED,max
Chain of EYFP tagged myosin Va four tandem IQ domain peptide (IQ3-6) (mouse) (Q99104 814-920): as the sequence (Q99104 814-920) above

[9] = biological target: NaV1.4 with EYFP fused to its carboxy-terminus (rat) (UniProt P15390); assay: as above
[10] = biological target: EYFP tagged myosin Va peptide containing a single IQ domain (IQ6) (mouse) (UniProt Q99104); assay: as above
Chain of EYFP tagged myosin Va peptide containing a single IQ domain (IQ6) (mouse) (Q99104 885-920): as the sequence (Q99104 885-920) above

[11] = biological target: EYFP tagged myosin Va five tandem IQ domain truncation (IQ2-6) (mouse) (UniProt Q99104); assay: as above
Chain of EYFP tagged myosin Va five tandem IQ domain truncation (IQ2-6) (mouse) (Q99104 789-920): as the sequence (Q99104 789-920) above

[12] = biological target: EYFP tagged myosin Va three tandem IQ domain peptide (IQ4-6) (mouse) (UniProt Q99104); assay: as above
Chain of EYFP tagged myosin Va three tandem IQ domain peptide (IQ4-6) (mouse) (Q99104 837-920): as the sequence (Q99104 837-920) above

[13] = biological target: EYFP-tagged full length myosin Va neck domain peptide containing six IQ domains (IQ1-6) (mouse) (UniProt Q99104); assay: as above
Chain of EYFP-tagged full length myosin Va neck domain peptide containing six IQ domains (IQ1-6) (mouse) (Q99104 766-920): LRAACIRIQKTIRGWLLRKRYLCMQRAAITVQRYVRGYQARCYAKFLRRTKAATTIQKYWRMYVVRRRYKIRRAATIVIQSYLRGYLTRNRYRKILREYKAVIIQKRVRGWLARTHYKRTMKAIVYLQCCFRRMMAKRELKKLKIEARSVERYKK

[14] = biological target: CaV1.2 holochannel tagged with EYFP on its carboxy-terminus, co-expressed with β2a and α2δ subunits (UniProt P15381); assay: as above
Chain of CaV1.2 holochannel tagged with EYFP on its carboxy-terminus, co-expressed with β2a and α2δ subunits (P15381 whole entry, stated change not applied, chain 1 of 3, other chains not shown, the tested form may be a part): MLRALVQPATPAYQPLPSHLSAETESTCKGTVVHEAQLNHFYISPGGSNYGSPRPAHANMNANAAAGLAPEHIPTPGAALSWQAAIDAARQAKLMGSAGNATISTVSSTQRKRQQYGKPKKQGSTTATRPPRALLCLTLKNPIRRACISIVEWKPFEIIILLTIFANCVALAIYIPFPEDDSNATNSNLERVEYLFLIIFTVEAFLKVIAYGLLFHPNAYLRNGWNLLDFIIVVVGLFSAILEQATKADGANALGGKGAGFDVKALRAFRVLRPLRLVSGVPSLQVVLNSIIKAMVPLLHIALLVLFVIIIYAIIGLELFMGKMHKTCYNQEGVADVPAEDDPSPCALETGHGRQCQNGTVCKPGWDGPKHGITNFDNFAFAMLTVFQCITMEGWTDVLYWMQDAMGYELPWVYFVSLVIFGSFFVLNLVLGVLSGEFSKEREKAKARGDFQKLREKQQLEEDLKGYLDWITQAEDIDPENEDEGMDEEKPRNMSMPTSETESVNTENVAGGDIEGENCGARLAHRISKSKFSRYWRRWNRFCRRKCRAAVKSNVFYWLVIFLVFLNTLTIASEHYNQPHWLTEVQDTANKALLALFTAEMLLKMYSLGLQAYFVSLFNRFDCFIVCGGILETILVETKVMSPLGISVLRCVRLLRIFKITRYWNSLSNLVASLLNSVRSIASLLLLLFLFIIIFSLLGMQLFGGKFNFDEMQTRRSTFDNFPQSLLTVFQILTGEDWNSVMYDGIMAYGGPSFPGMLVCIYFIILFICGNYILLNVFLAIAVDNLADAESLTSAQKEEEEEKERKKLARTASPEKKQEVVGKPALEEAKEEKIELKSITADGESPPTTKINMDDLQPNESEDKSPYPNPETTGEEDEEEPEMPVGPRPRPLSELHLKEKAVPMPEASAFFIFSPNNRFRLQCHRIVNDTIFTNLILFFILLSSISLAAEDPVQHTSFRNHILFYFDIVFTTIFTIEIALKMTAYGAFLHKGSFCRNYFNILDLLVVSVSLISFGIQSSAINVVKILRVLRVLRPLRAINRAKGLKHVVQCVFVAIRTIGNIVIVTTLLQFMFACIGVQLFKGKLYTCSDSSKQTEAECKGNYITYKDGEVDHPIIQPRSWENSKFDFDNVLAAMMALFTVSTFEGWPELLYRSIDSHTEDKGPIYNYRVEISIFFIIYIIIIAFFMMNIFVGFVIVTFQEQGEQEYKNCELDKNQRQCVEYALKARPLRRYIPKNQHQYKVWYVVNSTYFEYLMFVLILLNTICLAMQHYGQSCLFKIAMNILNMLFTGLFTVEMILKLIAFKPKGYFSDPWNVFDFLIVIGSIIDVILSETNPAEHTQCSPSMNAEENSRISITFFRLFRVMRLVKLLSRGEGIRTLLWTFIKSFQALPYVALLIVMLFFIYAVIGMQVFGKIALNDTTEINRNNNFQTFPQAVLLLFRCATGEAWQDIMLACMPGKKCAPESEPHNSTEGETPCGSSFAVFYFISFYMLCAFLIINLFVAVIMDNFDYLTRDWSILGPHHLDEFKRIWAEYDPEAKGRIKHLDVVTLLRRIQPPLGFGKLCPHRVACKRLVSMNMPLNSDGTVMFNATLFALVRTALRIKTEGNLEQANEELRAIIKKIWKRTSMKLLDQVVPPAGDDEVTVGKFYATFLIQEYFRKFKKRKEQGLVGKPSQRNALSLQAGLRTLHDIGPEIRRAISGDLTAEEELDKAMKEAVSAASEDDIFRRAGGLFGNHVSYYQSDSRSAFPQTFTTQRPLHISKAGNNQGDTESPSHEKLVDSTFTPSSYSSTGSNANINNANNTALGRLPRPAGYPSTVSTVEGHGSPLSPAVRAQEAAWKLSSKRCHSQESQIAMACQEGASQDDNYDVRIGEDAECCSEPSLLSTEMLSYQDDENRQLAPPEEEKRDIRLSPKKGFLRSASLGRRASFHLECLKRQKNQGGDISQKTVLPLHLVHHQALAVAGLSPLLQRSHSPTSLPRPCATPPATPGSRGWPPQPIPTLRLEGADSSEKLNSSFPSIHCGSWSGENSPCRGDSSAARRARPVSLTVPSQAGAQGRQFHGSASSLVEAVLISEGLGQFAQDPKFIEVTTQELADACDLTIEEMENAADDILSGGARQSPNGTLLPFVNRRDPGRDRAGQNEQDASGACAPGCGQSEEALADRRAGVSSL
Chain of CaV1.2 holochannel tagged with EYFP on its carboxy-terminus, co-expressed with β2a and α2δ subunits (P54290 25-1091, stated change not applied, chain 3 of 3, other chains not shown, further chain): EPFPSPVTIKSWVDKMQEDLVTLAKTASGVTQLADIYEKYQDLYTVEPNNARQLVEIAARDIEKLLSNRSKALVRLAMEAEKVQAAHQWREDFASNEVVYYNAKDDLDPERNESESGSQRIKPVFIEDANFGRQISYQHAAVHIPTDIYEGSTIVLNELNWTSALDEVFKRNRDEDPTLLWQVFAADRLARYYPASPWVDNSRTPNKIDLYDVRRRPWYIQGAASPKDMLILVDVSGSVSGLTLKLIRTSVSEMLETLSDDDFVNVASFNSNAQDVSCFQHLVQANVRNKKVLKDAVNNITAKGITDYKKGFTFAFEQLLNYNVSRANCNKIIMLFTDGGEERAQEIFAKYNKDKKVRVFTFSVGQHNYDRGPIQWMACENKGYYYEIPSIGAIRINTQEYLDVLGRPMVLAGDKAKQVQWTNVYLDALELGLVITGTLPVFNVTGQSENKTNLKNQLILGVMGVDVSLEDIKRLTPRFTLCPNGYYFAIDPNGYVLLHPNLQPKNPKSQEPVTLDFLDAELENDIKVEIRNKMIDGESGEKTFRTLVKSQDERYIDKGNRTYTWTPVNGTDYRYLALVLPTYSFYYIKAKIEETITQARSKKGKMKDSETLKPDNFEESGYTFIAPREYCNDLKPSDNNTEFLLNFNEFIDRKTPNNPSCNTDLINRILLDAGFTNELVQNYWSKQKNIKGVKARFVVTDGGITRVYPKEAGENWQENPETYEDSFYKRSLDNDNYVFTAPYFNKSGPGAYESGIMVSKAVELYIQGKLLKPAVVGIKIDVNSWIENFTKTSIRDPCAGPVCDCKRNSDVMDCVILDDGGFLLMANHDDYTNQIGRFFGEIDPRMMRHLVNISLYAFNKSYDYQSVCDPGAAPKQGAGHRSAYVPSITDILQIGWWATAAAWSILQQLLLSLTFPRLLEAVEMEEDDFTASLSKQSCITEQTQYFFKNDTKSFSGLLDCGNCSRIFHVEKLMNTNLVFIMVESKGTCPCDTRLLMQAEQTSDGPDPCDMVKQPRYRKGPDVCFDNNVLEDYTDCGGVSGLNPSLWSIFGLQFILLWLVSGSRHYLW

[15] = biological target: EYFP tagged myosin Va two tandem IQ domain peptide (IQ5-6) (mouse) (UniProt Q99104); assay: as above
Chain of EYFP tagged myosin Va two tandem IQ domain peptide (IQ5-6) (mouse) (Q99104 862-920): as the sequence (Q99104 862-920) above

[16] = biological target: CaV1.2 holochannel tagged with EYFP on its carboxy-terminus, co-expressed with β2a and α2δ subunits (UniProt P15381); assay: FRET or BRET; FRET 2-hybrid (3^3-FRET and E-FRET) in single live HEK293 cells, room temperature, elevated cytosolic Ca2+: Tyrode's bath with 10 mM Ca2+ and 4 μM ionomycin; relative (effective) dissociation constants Kd,EFF; stoichiometry ratio ν = EA,max/ED,max

Chain of YFP-fused myosin Va peptide containing five tandem IQ motifs (IQ2-6) (mouse) (Q99104 789-920): as the sequence (Q99104 789-920) above

“ECFP-tagged calmodulin (from UniProt P0DP23 1-149) (natural protein)” gave a stoichiometry N [1] of 5, a stoichiometry N [2] of 4 and a stoichiometry N [3] of 3. The stoichiometry N [4] was 2.

With “EYFP-tagged calmodulin (from UniProt P0DP23 1-149) (natural protein)” the stoichiometry N [5] was 1, the stoichiometry N [6] was 5 and the stoichiometry N [7] was 3.

“ECFP-tagged calmodulin (CaM) (from UniProt P0DP23 1-149) (natural protein)” was tested, and the stoichiometry N (CaM per peptide (donors per acceptor)) [8] was 4, the stoichiometry N (CaM per channel (donors per acceptor)) [9] was 1.14 and the stoichiometry N (CaM per peptide (donors per acceptor)) [10] was 0.97. For the same substance, the stoichiometry N (CaM per peptide (donors per acceptor)) [11] was 5, the stoichiometry N (CaM per peptide (donors per acceptor)) [12] was 3 and the stoichiometry N (CaM per peptide (donors per acceptor)) [13] was 5.91. It also gave a pKd [14] of 6.94, a stoichiometry N (CaM per channel (donors per acceptor)) [14] of 1.1 and a stoichiometry N (CaM per peptide (donors per acceptor)) [15] of 2. The stoichiometry N (CaM per channel (donors per acceptor)) [16] was 1.94.
